This note sets out measurements from patent publication US20110189154.

The target of series [1] is T1, Tsa1 (S. cerevisiae 2-Cys peroxyredoxin) (UniProt P34760).
T1 sequence: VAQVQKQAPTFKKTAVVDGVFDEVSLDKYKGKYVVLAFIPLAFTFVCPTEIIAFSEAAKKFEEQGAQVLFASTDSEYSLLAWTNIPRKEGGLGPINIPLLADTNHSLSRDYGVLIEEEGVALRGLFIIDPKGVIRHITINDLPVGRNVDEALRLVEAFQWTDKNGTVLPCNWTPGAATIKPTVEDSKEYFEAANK

The target of series [2] is 6His-Prx1 (human peroxyredoxin Prx1), superoxidized in the cysteine sulfinic acid form (UniProt Q06830).
6His-Prx1 (human peroxyredoxin Prx1), superoxidized in the cysteine sulfinic acid form, sequence (Q06830 whole entry): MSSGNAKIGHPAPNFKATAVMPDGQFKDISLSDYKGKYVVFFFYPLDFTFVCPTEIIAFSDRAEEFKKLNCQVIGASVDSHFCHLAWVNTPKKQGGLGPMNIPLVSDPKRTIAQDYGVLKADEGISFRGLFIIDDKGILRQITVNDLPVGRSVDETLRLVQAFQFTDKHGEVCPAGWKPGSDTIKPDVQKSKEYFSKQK
The target in series [3] is 6His-Prx2 (human peroxyredoxin Prx2), superoxidized in the cysteine sulfinic acid form (UniProt P32119).
6His-Prx2 (human peroxyredoxin Prx2), superoxidized in the cysteine sulfinic acid form, sequence (P32119 whole entry): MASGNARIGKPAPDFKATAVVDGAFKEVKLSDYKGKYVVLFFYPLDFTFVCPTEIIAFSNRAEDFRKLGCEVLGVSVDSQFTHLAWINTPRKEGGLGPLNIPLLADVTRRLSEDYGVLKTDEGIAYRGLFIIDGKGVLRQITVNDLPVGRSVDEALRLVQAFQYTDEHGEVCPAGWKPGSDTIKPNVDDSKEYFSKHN

hSrx1 (human sulfiredoxin), sequence (chain, as listed by the source): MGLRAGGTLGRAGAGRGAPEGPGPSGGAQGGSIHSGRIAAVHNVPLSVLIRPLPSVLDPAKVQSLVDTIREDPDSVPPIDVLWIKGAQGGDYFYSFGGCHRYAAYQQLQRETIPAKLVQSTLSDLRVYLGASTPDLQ

For “HA-tagged Srx1^C84S (S. cerevisiae Srx1 with Cys84 changed to serine)”, the “reduction of the Cys-SO2H form of Tsa1” value in series [1] was “completely eliminates the formation of the disulfide bridge between Srx1 and Tsa1 and the reduction of the Cys-SO2H form of Tsa1”. Turning to hSrx1 (human sulfiredoxin), in series [2], the “reduction of superoxidized 6His-Prx1 in vitro” value is “shows the ability of hSrx1, expressed from Baculovirus in High Five cells, to reduce the human peroxyredoxins 6His-Prx1 and 6His-Prx2 superoxidized in the cysteine sulfinic acid form”. Besides, the “reduction of superoxidized 6His-Prx2 in vitro” value in series [3] was “shows the ability of hSrx1, expressed from Baculovirus in High Five cells, to reduce the human peroxyredoxins 6His-Prx1 and 6His-Prx2 superoxidized in the cysteine sulfinic acid form”.
